In PMC4232046 (2014) one finds Kd data, which are given here for one molecule.

The target of the assay is Aspergillus fumigatus core CCAAT-binding complex (HapB(230–299), HapC(40–137), HapE(47–164)) (Aspergillus fumigatus). In words: SPR. On the technique in general: SPR reads the build-up and loss of mass on a sensor chip optically.

B1: Aspergillus fumigatus HapX(24–158) (domain or fragment)
chain: SPSPGPGTPGSITSKEWVIPPRPKPGRKPATDTPPTKRKAQNRAAQRAFRERRAARVNELEEQIKKIEDEHEIHIAAFKEQITNLSREVEQCRSEMTWWRDRCHALEKEVSVERSAKEAIVKEFRSSLSDREAVR
For orientation: Kd means the concentration at which binding is half-saturated. Low values mean tighter binding, high ones weaker binding. For B1, the Kd amounted to 0.035 µM.
